Measured values: publication PMC2115223

Biological target: diphtheria toxin receptor (14.5-kD protein of Vero cells) (African green monkey (endogenous in Vero))
Test: radioligand binding

Chain of diphtheria toxin receptor (14.5-kD protein of Vero cells) (African green monkey (endogenous in Vero)) (Q09118 20-208 limits assumed): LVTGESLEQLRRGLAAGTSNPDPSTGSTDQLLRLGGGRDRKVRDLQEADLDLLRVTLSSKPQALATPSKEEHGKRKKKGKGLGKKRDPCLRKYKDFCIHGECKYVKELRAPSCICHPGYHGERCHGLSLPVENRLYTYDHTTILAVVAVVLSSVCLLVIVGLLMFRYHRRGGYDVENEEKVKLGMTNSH

For CRM228 (natural protein), the fold less potent than nicked CRM197 in competition was 200 times.
